Consider 1 molecule from patent US20220119534A1 (DRAGONFLY THERAPEUTICS, published 2022).

The kon is a measure of how fast the partners come together. Usually koff stands for the first-order rate constant of dissociation. One may read the Kd as the equilibrium constant for the complex coming apart.

Assay [1] addresses T1, Human CLEC12A expressed on cells (Ba/F3-hCLEC12A, PL21, HL60) (human, UniProt Q5QGZ9 1-265).
T1 sequence: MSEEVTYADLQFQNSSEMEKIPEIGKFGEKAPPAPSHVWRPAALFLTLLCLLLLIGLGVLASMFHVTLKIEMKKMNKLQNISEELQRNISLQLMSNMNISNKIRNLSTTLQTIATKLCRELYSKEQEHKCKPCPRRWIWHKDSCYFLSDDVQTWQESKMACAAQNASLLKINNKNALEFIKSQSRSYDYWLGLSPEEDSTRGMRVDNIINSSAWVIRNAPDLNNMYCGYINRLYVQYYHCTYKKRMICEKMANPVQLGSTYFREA
In words: cell-based or functional assay.

Assay [2] deals with T2, Human CLEC12A-His (recombinant, K244 WT) (human, UniProt Q5QGZ9 65-265).
T2 construct: Made in house (Dragonfly Tx); also called hCLEC12A; hCLEC12A-His; not shown: His tag
T2 sequence: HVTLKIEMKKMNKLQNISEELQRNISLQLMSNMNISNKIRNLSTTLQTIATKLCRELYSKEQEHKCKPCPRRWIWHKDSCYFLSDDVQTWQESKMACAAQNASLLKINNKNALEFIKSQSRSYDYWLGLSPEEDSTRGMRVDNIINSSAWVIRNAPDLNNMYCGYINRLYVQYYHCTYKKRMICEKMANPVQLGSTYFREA
The assay is described as follows: SPR, two-state fit (ka1); control sample. For orientation: In SPR one partner is held on a chip, and binding of the other changes the refractive index at the surface.

Assay [3] has as its target T2, Human CLEC12A-His (recombinant, K244 WT). The assay is described as follows: SPR, two-state fit (kd1); fully purified protein after low pH hold.
Assay [4] shares this target. In words: SPR, two-state fit; control sample.
The next assay addresses T3, Human CLEC12A-K244Q-His (human, UniProt Q5QGZ9 65-265).
T3 construct: also called hCLEC12A (Q244); CLEC12A (Q244); not shown: His tag
T3 chain: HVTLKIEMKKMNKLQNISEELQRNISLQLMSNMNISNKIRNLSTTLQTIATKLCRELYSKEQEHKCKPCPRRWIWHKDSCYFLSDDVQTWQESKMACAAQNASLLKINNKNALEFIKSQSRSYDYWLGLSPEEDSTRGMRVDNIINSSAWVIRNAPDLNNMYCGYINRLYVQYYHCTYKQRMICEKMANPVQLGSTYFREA
In words: SPR, two-state fit.

For assay [5], the target named is T2, Human CLEC12A-His (recombinant, K244 WT). The assay is described as follows: SPR, two-state fit.
Assay [6] has as its target T4, Human CD16a V158 (FcγRIIIa V158) (human, UniProt P08637 17-208, biotinylated).
T4 construct: Bought recombinant receptor; also called hCD16aV; hFcγRIIIa V158
In words: SPR; control sample.

Assay [7] has as its target T5, mFc-hNKG2D (recombinant mFc-tagged human NKG2D dimer) (human, UniProt P26718 73-216).
T5 construct: extracellular domain; Made in house; not shown: mouse Fc tag
T5 sequence (looked up): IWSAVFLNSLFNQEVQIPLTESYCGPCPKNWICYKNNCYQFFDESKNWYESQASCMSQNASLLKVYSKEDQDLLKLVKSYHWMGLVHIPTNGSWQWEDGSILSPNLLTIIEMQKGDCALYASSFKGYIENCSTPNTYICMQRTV
The assay is described as follows: SPR; control sample.

T4 sequence (P08637 17-208 F176V limits assumed): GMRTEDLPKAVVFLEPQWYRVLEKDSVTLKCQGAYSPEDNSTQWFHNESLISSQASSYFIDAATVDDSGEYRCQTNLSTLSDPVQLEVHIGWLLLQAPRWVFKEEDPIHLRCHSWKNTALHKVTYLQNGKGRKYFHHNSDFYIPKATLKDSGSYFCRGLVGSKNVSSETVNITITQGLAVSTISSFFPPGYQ

B1: AB0089 TriNKET (bispecific antibody, human IgG1, kappa)
chain: QLQLQESGPGLVKPSETLSLTCTVSGFSLTNYGLHWIRQPPGKCLEWIGVIWVGGATDYNPSLKSRVTISVDTSKNQFSLKLSSVQAADTAVYYCAKGDYGDTLDYWGQGTLVTVSSGGGGSGGGGSGGGGSGGGGSDIQMTQSPSSLSASVGDRVTITCHASQNINFWLSWYQQKPGKAPKLLIYEASNLHTGVPSRFSGSGSGTDFTLTISSLQPEDFATYYCQQSHSYPLTFGCGTKLEIKGSDKTHTCPPCPAPELLGGPSVFLFPPKPKDTLMISRTPEVTCVVVDVSHEDPEVKFNWYVDGVEVHNAKTKPREEQYNSTYRVVSVLTVLHQDWLNGKEYKCKVSNKALPAPIEKTISKAKGQPREPRVYTLPPCRDELTKNQVSLTCLVKGFYPSDIAVEWESNGQPENNYKTTPPVLVSDGSFTLYSKLTVDKSRWQQGNVFSCSVMHEALHNHYTQKSLSLSPG
heavy: EVQLVESGGGLVKPGGSLRLSCAASGFTFSSYSMNWVRQAPGKGLEWVSSISSSSSYIYYADSVKGRFTISRDNAKNSLYLQMNSLRAEDTAVYYCARGAPIGAAAGWFDPWGQGTLVTVSSASTKGPSVFPLAPSSKSTSGGTAALGCLVKDYFPEPVTVSWNSGALTSGVHTFPAVLQSSGLYSLSSVVTVPSSSLGTQTYICNVNHKPSNTKVDKKVEPKSCDKTHTCPPCPAPELLGGPSVFLFPPKPKDTLMISRTPEVTCVVVDVSHEDPEVKFNWYVDGVEVHNAKTKPREEQYNSTYRVVSVLTVLHQDWLNGKEYKCKVSNKALPAPIEKTISKAKGQPREPQVCTLPPSRDELTENQVSLTCLVKGFYPSDIAVEWESNGQPENNYKTTPPVLDSDGSFFLYSWLTVDKSRWQQGNVFSCSVMHEALHNHYTQKSLSLSPG
light: DIQMTQSPSSVSASVGDRVTITCRASQGISSWLAWYQQKPGKAPKLLIYAASSLQSGVPSRFSGSGSGTDFTLTISSLQPEDFATYYCQQGVSFPRTFGGGTKVEIKRTVAAPSVFIFPPSDEQLKSGTASVVCLLNNFYPREAKVQWKVDNALQSGNSQESVTEQDSKDSTYSLSSTLTLSKADYEKHKVYACEVTHQGLSSPVTKSFNRGEC
notes: F3' format heterodimer of three chains; human IgG1 Fc with EW-RVT and Y349C/S354C mutations; also called AB0089 Lot AB0089-002; CLEC12A TriNKET AB0089
Regarding B1, the “EC50, KHYG-1-CD16aV mediated cytotoxicity, HL60 cells” value in assay [1] turned out to be 0.27 nM. For the same molecule, in assay [1], the “EC50, KHYG-1-CD16aV mediated cytotoxicity, PL21 cells” value was 0.16 nM. Moreover, the kon in assay [2] was determined as 1.04e+07 M⁻¹ s⁻¹; in assay [6] it was 85300 M⁻¹ s⁻¹; in assay [7], 175000 M⁻¹ s⁻¹. Besides, the results for the koff in assay [3], in assay [6] and in assay [7] were 0.0276 s⁻¹, 0.0276 s⁻¹ and 0.135 s⁻¹, respectively. Besides, the equilibrium dissociation constant (Kd) turned out to be 1 nM in assay [4]; 1.17 nM with Human CLEC12A-K244Q-His; 0.6 nM in assay [5]; 323 nM in assay [6]; 772 nM in assay [7].
